From article PMC2840394

Target: AL-12 variable domain (VL), amyloidogenic immunoglobulin kappa light chain of the κI O18/O8 germline (human (patient AL-12))
Assay: crystal structure

Substance: AL-12 variable domain (VL), amyloidogenic immunoglobulin kappa light chain of the κI O18/O8 germline (domain or fragment)
- stoichiometry N: 2
